The nature of this data set: label from the status in PepcDB records.
Turning to “SSTHGSRFPLCGGRRDHKGLTHIFNPPPKRFESILEGLFGPALLKDLSLFKDCEPESISDWTFDENCLFCCLRRDKVKGHLVGLDEPASGAGQEALLKQEQAKIIRFERQAEEFLNAVFYRKDSPWVSDPNIPLVAREIMQRMIQQFAAEYTSKNSSTQDPSQPNSTKNQSLPKASPVTTSPTAATTQNPVLSKLLMADQDSPLDLTVRKSQSEPSEQDGVLDLSTKKSPCAGSTSLSHSPGCSSTQGNGRPGRPSQYRPDGLRSGDGVPPRSLQDGTREGFGHSTSLKVPLARSLQISEELLSRNQLSTAASLGPSGLQNHGQHLILSREASWAKPHYEFNLSRMKFRGNGALSNISDLPFLAENSAFPKMALQAKQDGKKDVSHSSPVDLKIPQVRGMDLSWESRTGDQYSYSSLVMGSQTESALSKKLRAILPKQSRKSMLDAGPDSWGSDAEQSTSGQPYPTSDQEGDPGSKQPRKKRGRYRQYNSEILEEAISVVMSGKMSVSKAQSIYGIPHSTLEYKVKERLGTLKNPPKKKMKLMRSEGPDVSVKIELDPQGEAAQSANESKNE”, the protein production entry is “not failed”.

For the sequence “MASADKLINTDVPEKDVFAFHFLQSLSNLRKQNPFDTPDQKNYRVRKIKKAAYVSMARAAGGSSRLWSRALLRRADKDDNKIVRFSRRKWKISSKRRRSNQRAPVVEEAAERLRNLVPGGGGMETSKLMEETAHYIKCLSMQVKVMQCLVDGLSPK”, the protein production entry is reported as “failed”.

With “MGLPLVLDFDLYFCLMKCFIHQQLHLKVGYRLTERFVKTFGEERDGVWFYPRPEDIAARSYDDLRALQLSRRKAEYIVDVSRLIADGTLRLDDLEQMEDGEVMERLTAIRGIGPWTVQNFLLFGLEHHHHHH”, the protein production entry was “failed”.

In the case of “MSRQAEDLMVRTLSDASSLFGKERYKKALEKLDKAEKLAEKTKRTDILCRVLLQKGAVMNSMGKPDEGQDLYDKALDIYRTSNLNEQESSVLKHTLSNTFSELAKHFKMVDSIENAEKCYLNEIKVYEILLEKDPEDEDSNLEIARVFKAIGDLYEYFKPEKMDPETERQYYEKILDIREKAFELLPDSETYIYDLAHALGKLVDYYIIRQDYKSAIQFQERVVEVMEELIDLLANWKDLKAKSNAYDKLGSLYAEIGEEELAQEQYSKALEYYGMIFDDELWPLSVKAMLASELMERGKTLLLLKKYESAKESMDVALDFLEGVDKEEMEDSTEESLDLASVILGEGYEEESEDSGYLAELAGIFREYAKTLSDLNRNEEAEEFTAKSEKILRKLA”, the protein production result is reported as “failed”.

As to “MKEALKKYNLPIVFVITYVFGCVFAMLCQNTAGEVIMNLLIFALIVLVIYAIIFNYVMYSKMSFGQNFLYILFSSIIYIFGLIFVMILSAVIGDSINNSNDDFGFLLMMFGTSFTMGIFFAYLIPIVPSAIVKLLCGHEKK”, the protein production result is given as “failed”.

Take “MAMNLPADNEGKIKLAMSILVTIINDTGVPRNIRRAAANALTHLRDPRLSPAVRAANAISALEEVSQDPNMPFYARTRIWQVITILETVRD”: the protein production entry was “failed”.

Consider “MDHIRTHNTHHARKSADHLCVITDGGVSAIDRVSQRNIRVRLGAEHHDQLFCQAHGLKRLLPGKSIDLHKDKKWRTLICSITKNPETSMTPDAARKNSPEMKPRKKKKRQFRQLFARSLQRLARTRSGSAEFSGPLRSVAILAQEKLGDCVLLTPLVRNLRQAFPDLEIHLITFSRASANFFMNDPQVTAVHLVKKQPRRYFREVLSRKFDLLFNTKDHPSTWFLLQSALIRARFKVGHNNPFHEGLYDRLLDTEFHAHMAVKNCALLPLLGVTADTEACRPSLPAMPVSNEIWQLLSRLAEDIRPIGVNISAGEPNRLWTEAKWRALLERFPGERFVVLSGPDDLDAKRRLEEQCPNAVASPPTRNLYEASCIVAKLRLLVTPDTSMVHVASATGTPVAGLYREAPQDISRFGPYAIPYEIVISPTGEVSGIKPESVADAVRRLMARAIGREA”, for which the protein production result is “failed”.

Consider “MRASKASADESLNVFPVPADSPGSPIAGANGVPKEISLPGEARPFHLANSAFWPYVLLFVSSLTLSGCAGMVDMVRDVTRSLADIDVSGITDLFGSGEVQMSPEQIAQLEVIPSTRPGWEASVEESPAAVFLPVFGDGAVYAGGPDGRLVRFDPASGKASGVIDTKHPLAGGIGTGDGMLLVGTFKGEVLAFDEKSGKPKWTANLSTEVLSPPHAGMGVVVVRTGDGRIYGLDSESGKRKWVYQGATPSLTVRSFAGALIADDRVYAGFAGGRLVALNLSNGSLVWEAMVSRPRGATELERISDVTSLPVLDEQQVCAVAYQGRIACFDITAGNQIWTRDVSSNAGLAMDDNYVYVSENRGGIVAYDKRDGTSIWAQDLLNGLKLSAPLVHGARIVVGDSQGYVNFIRKDNGAIIARSGTDESAITARPISLPNGIAVQTRKGGVFAFGA”, for which the protein production result is reported as “failed”.

Take “THVVCSDSGLEVLYQSCDPLQDFGFSVEKCSKQLKSNINIRFGIILREDIKELFLDLALMSQGSSVLNFSYPICEAALPKFSFCGRRKGEQIYYAGPVNNPEFTIPQGEYQVLLELYTEKRSTVACANATIMCS”: the protein production result is listed as “not failed”.

As for “MNSLPGSIQTSRTNQQRPLISVIVPAYNAEDFILEALRSITAQDYEPLEILLVDDGSTDGTADLVRREMPTVRIIRQDNTGVAEARNTGLRNACGEFICLLDADDGWCPGKLHAQVQYLQQHPQTGAVYHAWQVWRPDAEGNFVSMPAPVVADSTAIDPALSGWIYPQLLMDCIVHTSTIMMRREFVEQLGFFRAELINGEDYDYWLRLSRLTRIDKLVGVYSFYRGSPGSLTNSVKPVNYEYNVVSAAAAKWGLAAPDGRALAAVDFQRRLGKLAFDFAYRHYRWGSARIARRAALQAWRHDPRRYKALLFWLASFFKREPRSAVQG”, the protein production entry is “failed”.

For the sequence “MELELDDDVFFADISKQLNLLITDEDEQNPISLSSSVSFQGLFRGNYQTSATPYMMYNEQINYNVIRESKGTGVFIPRSSQPRRKHNHHPHQKKQGRFIGSFIPKQQFPHHGHDNNLTTLNNNNQESITFHHASTNPRRTYRDAASLFT”, the protein production result is “failed”.

Consider “MKRDHHQFQGRLSNHGTSSSSSSISKDKMMMVKKEEDGGGNMDDELLAVLGYKVRSSEMAEVALKLEQLETMMSNVQEDGLSHLATDTVHYNPSELYSWLDNMLSELNPPPLPASSNGLDPVLPSPEICGFPASDYDLKVIPGNAIYQFPAIDSSSSSNNQNKRLKSCSSPDSMVTSTSTGTQIGGVIGTTVTTTTTTTTAAGESTRSVILVDSQENGVRLVHALMACAEAIQQNNLTLAEALVKQIGCLAVSQAGAMRKVATYFAEALARRIYRLSPPQNQIDHCLSDTLQMHFYETCPYLKFAHFTANQAILEAFEGKKRVHVIDFSMNQGLQWPALMQALALREGGPPTFRLTGIGPPAPDNSDHLHEVGCKLAQLAEAIHVEFEYRGFVANSLADLDASMLELRPSDTEAVAVNSVFELHKLLGRPGGIEKVLGVVKQIKPVIFTVVEQESNHNGPVFLDRFTESLHYYSTLFDSLEGVPNSQDKVMSEVYLGKQICNLVACEGPDRVERHETLSQWGNRFGSSGLAPAHLGSNAFKQASMLLSVFNSGQGYRVEESNGCLMLGWHTRPLITTSAWKLSTAAY”, for which the protein production result is recorded as “failed”.

On to “MNIREIAAKCSKCGYCTTCPTYRIEGWETVSPRGKIQLALKYVDGEIDVDQKIVKDIFKCSVCGLCQEVCPVELPLIDFWEELRRTLVQKGLAPLSVHRKLREITFRNYNPYSGDQERRGDWADFEIKPAKTLYFAGCTASFRLQNLAKSTASVLEKLGIDFTIAGKNEYCCGSPFLRTGQKDIVERLFEKNYAYWQKMGIERIITSCPGCYRTISLDYPKIAEEKGYEFDIEVVHTVSILDKMGEFEKIDLKATYHDPCHLGRHMGMYEEPRNVIKRLGINFVEMERNREQALCCGAGGGLRSQFPEISFEIGRQRVLEAMETGAEYLITCCPFCEYHLSKSAEKLGNRIKVVDLVEIAEKLISP”, for which the protein production result is “failed”.

Take “RKILDSKAIDLMNALMRLNQIRPGLQYKLLSQSGPVHAPVFTMSVDVDGTTYEASGPSKKTAKLHVAVKVLQAMGYPTGFDADI”: the protein production entry is listed as “not failed”.

Turning to “MNRVIACIDSSPCINAIAEAAAWVARQTKRELVLLQILDYYPASYHLGEISGVIGFESNAMLLKELAELEQKQSDLAIDYSNNLLKHISDMILEKYGIQSTKIQEKGDFLEQSFNVLRETDFVIIGKVGERAAEKNKPIGSNVENFIRGANCTVMTVGEHFKIPTRFIFAYEYSPTCLNLMQRIAQSDLLKTLQCHLLYVGDHPEVLKDPEEFLKNAGLDVITVYRYGDVAENILEYQKELGIQMIVLGAFSHSKIHQFFLGSIATSIFRNATVPLLVAK”, the protein production entry is listed as “failed”.

Turning to “MDGSIRVSAKTVDDAITEALIQLGVTSDRLEYEVIEKGSSGFLGIGMKQAVIEARRKPEPVAEVKEETIPVEEVKPSVVKEQVSEPVQEKQEEKAEEEPARKKATELAEVSDEAIKAVEAFLNDTLKAMDMDVEIVSEVDSEGALSVEMKGSNMGILIGKRGQTLDALQYLANRVANKHQDGYVRVKLDTENYRARREETLRHLAKNIAFKVKRTRRAVSLEPMNPYERRIIHAALQSDPHVTTHSEGEEPYRKVVVTLKR”, the protein production entry was “failed”.

For “MKNDDLLMQIMMLDFAVQDSALFIDTHPCDKEAMNYFNEAATRLKAAKKEYQKQGHALVNREVGAYQNDYLSAPWPWVGDHKCGCTKNVCNTL”, the protein production entry is given as “failed”.

Regarding “MGALLPRGQASRPRTRHGRSPQNDRRQEARDVTGRHLAMVQRPGKMARWVLCCECLRRPMDLTLRLATALLTASLLLPLRPAQAQLAGHGGPVRAIAVSSDGKTVLSGSFDTAAIRWSLATESAEQVLRFHSGAVNAAAFLGDGRMATAGADGQIAIWTAGGLQPDQVLEGHTGPIVGLVVSPDTSKLASASWDHTVRISSLSDGGTRVLQGHSQSVNGVAFAPDGKSLVSVGYDLTVRIWPLAGGSPEIVVMPAPLNAVAISPDGEIVTGAADGKLRMMTADGKENGEVMAGARPIVALAISQDGALIATGAIDGTVAIVDRKARSVMRTLAGLGAPVWSVAFLPDGATLLTGGADGKIRRWNALTGAAIGSNVLGTPADPLAAYVGDHGAEMFRACVACHTLSENEVQRAGPTLAGLFGRKIASLPGYRFTDALKAMDIVWTPETVSKLFEIGPNAYTPGTKMPEQRIGSAEDRRALTDFLARATSK”, the protein production entry was “failed”.

As for “ESKSPIIQNVLSYITEHFSEGMSLKTLGNDFHINAVYLGQLFQKEMGEHFTDYLNRYRVNYAKEELLQTKDNLTIIAGKSGYTDMAYFYRQFKKHTGETPNRYRKIHQ”, the protein production entry is on record as “not failed”.

For the sequence “MSRCASRFRISSKLSATFRTTHKSHQARNPAGFFVIMGYHKDATKRMIMVYTKVYPMRFGYIALGTPPIQSLDIRKMPKLTDMQIRAWIKSGERFEGRADGNGLYLRYREADKTPTWRFRYKLAGKSRAMLIGSYSELSLSKARETAKELSARVALGYDVAGEKQKRKTEALAKMEAEKNAMRVSELAAEYFERQILPRWKHPDILRRRIDKDINPCIGSMKVEDVKPRHIDDMLKGIVDRGAPTIATDVLRWTRRIFDYGIKRHALEINPCSAFEVADAGGKEAARDRWLTRDELIQLFKAMRTAKGFSRQNEITFKLLLALCVRKMELCAARWEEFDLDGAVWHLPEERSKNGDPIDIPLPSPAVEWLRELHTFSCNSAWVLPARKMQNRMIPHIQESTLPVALAKVRAEMPDVPNFTIHDFRRTARTHLAALGVDPVVAERCLNHRIKGVEGIYNRHQYFDERKAALAQWADLLVALESGKDYNVTPLRRAN”, the protein production entry is on record as “failed”.

For the sequence “MADVATKHPMEDEVKKTEASSLVGKLETDVEIKASADKFHHMFAGKPHHVSKASPGNIQGCDLHEGDWGTVGSIVFWNYVHDGEAKVAKERIEAVEPDKNLITFRVIEGDLMKEYKSFLLTIQVTPKPGGPGSIVHWHLEYEKISEEVAHPETLLQFCVEVSKEIDEHLLAEEEEVKTPETPSLVGKLETDVEIKASAEKFHHMFAGKPHHVSKASPGNIQGCDLHEGDWGQVGSIVFWNYVHDREAKVAKERIEAVEPNKNLITFRVIDGDLMKEYKSFLLTIQVTPKLGGPGSIVHWHLEYEKISEEVAHPETLLQFCVEVSKEIDEHLLAEE”, the protein production entry is recorded as “failed”.

The record behind these values is a protein production outcome set (Wang et al. 2014).
